Data reported in patent US20140357577A1, “HIV Membrane Fusion Inhibitors” (priority 2011, published 2014).
Starred links: 1 amine or outer side, 2 acyl side, 3 side chain; linkers in the order of their positions; H or OH if unused. Positions of bridges follow the written chain, without caps; N, C: chain ends. Non-standard residues stand in square brackets, D forms with d. *: point of attachment. pXylylene = c1cc(C[*:2])ccc1C[*:1]; Palmitoyl = CCCCCCCCCCCCCCCC(=O)*; tBuAla = CC(C)(C)C[C@H](N)C(=O)O; Cha = N[C@@H](CC1CCCCC1)C(=O)O; Suc = O=C(CCC(=O)[*:2])[*:1]; Abu = CC[C@H](N)C(=O)O; Pentanoyl = CCCCC(=O)*; B1 = not defined here

B1: peptide 1 (peptide)
peptide: Suc-ANYLALIEALIRAAQEQQEKNEAAL-NH2
SMILES: CC[C@H](C)[C@H](NC(=O)[C@H](CC(C)C)NC(=O)[C@H](C)NC(=O)[C@H](CCC(=O)O)NC(=O)[C@@H](NC(=O)[C@H](CC(C)C)NC(=O)[C@H](C)NC(=O)[C@H](CC(C)C)NC(=O)[C@H](Cc1ccc(O)cc1)NC(=O)[C@H](CC(N)=O)NC(=O)[C@H](C)NC(=O)CCC(=O)O)[C@@H](C)CC)C(=O)N[C@@H](CCCNC(=N)N)C(=O)N[C@@H](C)C(=O)N[C@@H](C)C(=O)N[C@@H](CCC(N)=O)C(=O)N[C@@H](CCC(=O)O)C(=O)N[C@@H](CCC(N)=O)C(=O)N[C@@H](CCC(N)=O)C(=O)N[C@@H](CCC(=O)O)C(=O)N[C@@H](CCCCN)C(=O)N[C@@H](CC(N)=O)C(=O)N[C@@H](CCC(=O)O)C(=O)N[C@@H](C)C(=O)N[C@@H](C)C(=O)N[C@@H](CC(C)C)C(N)=O
B2: peptide 50 (peptide)
peptide: Ac-ECYLRCIEALIRAAQEQQEKNEAALR-NH2
modifications: linker 2-6 via pXylylene
SMILES: CC[C@H](C)[C@H](NC(=O)[C@H](CC(C)C)NC(=O)[C@H](C)NC(=O)[C@H](CCC(=O)O)NC(=O)[C@@H](NC(=O)[C@@H]1CSCc2ccc(cc2)CSC[C@H](NC(=O)[C@H](CCC(=O)O)NC(C)=O)C(=O)N[C@@H](Cc2ccc(O)cc2)C(=O)N[C@@H](CC(C)C)C(=O)N[C@@H](CCCNC(=N)N)C(=O)N1)[C@@H](C)CC)C(=O)N[C@@H](CCCNC(=N)N)C(=O)N[C@@H](C)C(=O)N[C@@H](C)C(=O)N[C@@H](CCC(N)=O)C(=O)N[C@@H](CCC(=O)O)C(=O)N[C@@H](CCC(N)=O)C(=O)N[C@@H](CCC(N)=O)C(=O)N[C@@H](CCC(=O)O)C(=O)N[C@@H](CCCCN)C(=O)N[C@@H](CC(N)=O)C(=O)N[C@@H](CCC(=O)O)C(=O)N[C@@H](C)C(=O)N[C@@H](C)C(=O)N[C@@H](CC(C)C)C(=O)N[C@@H](CCCNC(=N)N)C(N)=O
B3: peptide 51 (peptide)
peptide: Ac-ACYLACIEALIRRAQEQQEKNEAALR-NH2
modifications: linker 2-6 via pXylylene
SMILES: CC[C@H](C)[C@H](NC(=O)[C@@H]1CSCc2ccc(cc2)CSC[C@H](NC(=O)[C@H](C)NC(C)=O)C(=O)N[C@@H](Cc2ccc(O)cc2)C(=O)N[C@@H](CC(C)C)C(=O)N[C@@H](C)C(=O)N1)C(=O)N[C@@H](CCC(=O)O)C(=O)N[C@@H](C)C(=O)N[C@@H](CC(C)C)C(=O)N[C@H](C(=O)N[C@@H](CCCNC(=N)N)C(=O)N[C@@H](CCCNC(=N)N)C(=O)N[C@@H](C)C(=O)N[C@@H](CCC(N)=O)C(=O)N[C@@H](CCC(=O)O)C(=O)N[C@@H](CCC(N)=O)C(=O)N[C@@H](CCC(N)=O)C(=O)N[C@@H](CCC(=O)O)C(=O)N[C@@H](CCCCN)C(=O)N[C@@H](CC(N)=O)C(=O)N[C@@H](CCC(=O)O)C(=O)N[C@@H](C)C(=O)N[C@@H](C)C(=O)N[C@@H](CC(C)C)C(=O)N[C@@H](CCCNC(=N)N)C(N)=O)[C@@H](C)CC
B4: peptide 52 (peptide)
peptide: Pentanoyl-ENYLALIEELIRKAQEQQEKNEAALR-NH2
SMILES: CCCCC(=O)N[C@@H](CCC(=O)O)C(=O)N[C@@H](CC(N)=O)C(=O)N[C@@H](Cc1ccc(O)cc1)C(=O)N[C@@H](CC(C)C)C(=O)N[C@@H](C)C(=O)N[C@@H](CC(C)C)C(=O)N[C@H](C(=O)N[C@@H](CCC(=O)O)C(=O)N[C@@H](CCC(=O)O)C(=O)N[C@@H](CC(C)C)C(=O)N[C@H](C(=O)N[C@@H](CCCNC(=N)N)C(=O)N[C@@H](CCCCN)C(=O)N[C@@H](C)C(=O)N[C@@H](CCC(N)=O)C(=O)N[C@@H](CCC(=O)O)C(=O)N[C@@H](CCC(N)=O)C(=O)N[C@@H](CCC(N)=O)C(=O)N[C@@H](CCC(=O)O)C(=O)N[C@@H](CCCCN)C(=O)N[C@@H](CC(N)=O)C(=O)N[C@@H](CCC(=O)O)C(=O)N[C@@H](C)C(=O)N[C@@H](C)C(=O)N[C@@H](CC(C)C)C(=O)N[C@@H](CCCNC(=N)N)C(N)=O)[C@@H](C)CC)[C@@H](C)CC
B5: peptide 53 (peptide)
peptide: Ac-ECYAACIEELIRKAQEQQEKNEAALR-NH2
modifications: linker 2-6 via pXylylene
SMILES: CC[C@H](C)[C@H](NC(=O)[C@@H]1CSCc2ccc(cc2)CSC[C@H](NC(=O)[C@H](CCC(=O)O)NC(C)=O)C(=O)N[C@@H](Cc2ccc(O)cc2)C(=O)N[C@@H](C)C(=O)N[C@@H](C)C(=O)N1)C(=O)N[C@@H](CCC(=O)O)C(=O)N[C@@H](CCC(=O)O)C(=O)N[C@@H](CC(C)C)C(=O)N[C@H](C(=O)N[C@@H](CCCNC(=N)N)C(=O)N[C@@H](CCCCN)C(=O)N[C@@H](C)C(=O)N[C@@H](CCC(N)=O)C(=O)N[C@@H](CCC(=O)O)C(=O)N[C@@H](CCC(N)=O)C(=O)N[C@@H](CCC(N)=O)C(=O)N[C@@H](CCC(=O)O)C(=O)N[C@@H](CCCCN)C(=O)N[C@@H](CC(N)=O)C(=O)N[C@@H](CCC(=O)O)C(=O)N[C@@H](C)C(=O)N[C@@H](C)C(=O)N[C@@H](CC(C)C)C(=O)N[C@@H](CCCNC(=N)N)C(N)=O)[C@@H](C)CC
B6: peptide 54 (peptide)
peptide: Ac-ACYLACIEALIRAAQEQQEKNEAALL-NH2
modifications: linker 2-6 via pXylylene
SMILES: CC[C@H](C)[C@H](NC(=O)[C@H](CC(C)C)NC(=O)[C@H](C)NC(=O)[C@H](CCC(=O)O)NC(=O)[C@@H](NC(=O)[C@@H]1CSCc2ccc(cc2)CSC[C@H](NC(=O)[C@H](C)NC(C)=O)C(=O)N[C@@H](Cc2ccc(O)cc2)C(=O)N[C@@H](CC(C)C)C(=O)N[C@@H](C)C(=O)N1)[C@@H](C)CC)C(=O)N[C@@H](CCCNC(=N)N)C(=O)N[C@@H](C)C(=O)N[C@@H](C)C(=O)N[C@@H](CCC(N)=O)C(=O)N[C@@H](CCC(=O)O)C(=O)N[C@@H](CCC(N)=O)C(=O)N[C@@H](CCC(N)=O)C(=O)N[C@@H](CCC(=O)O)C(=O)N[C@@H](CCCCN)C(=O)N[C@@H](CC(N)=O)C(=O)N[C@@H](CCC(=O)O)C(=O)N[C@@H](C)C(=O)N[C@@H](C)C(=O)N[C@@H](CC(C)C)C(=O)N[C@@H](CC(C)C)C(N)=O
B7: peptide 55 (peptide)
peptide: Suc-ENYLRLIEELIRKAQEQQEKNEAALRGSGK(Palmitoyl)-NH2
SMILES: CCCCCCCCCCCCCCCC(=O)NCCCC[C@H](NC(=O)CNC(=O)[C@H](CO)NC(=O)CNC(=O)[C@H](CCCNC(=N)N)NC(=O)[C@H](CC(C)C)NC(=O)[C@H](C)NC(=O)[C@H](C)NC(=O)[C@H](CCC(=O)O)NC(=O)[C@H](CC(N)=O)NC(=O)[C@H](CCCCN)NC(=O)[C@H](CCC(=O)O)NC(=O)[C@H](CCC(N)=O)NC(=O)[C@H](CCC(N)=O)NC(=O)[C@H](CCC(=O)O)NC(=O)[C@H](CCC(N)=O)NC(=O)[C@H](C)NC(=O)[C@H](CCCCN)NC(=O)[C@H](CCCNC(=N)N)NC(=O)[C@@H](NC(=O)[C@H](CC(C)C)NC(=O)[C@H](CCC(=O)O)NC(=O)[C@H](CCC(=O)O)NC(=O)[C@@H](NC(=O)[C@H](CC(C)C)NC(=O)[C@H](CCCNC(=N)N)NC(=O)[C@H](CC(C)C)NC(=O)[C@H](Cc1ccc(O)cc1)NC(=O)[C@H](CC(N)=O)NC(=O)[C@H](CCC(=O)O)NC(=O)CCC(=O)O)[C@@H](C)CC)[C@@H](C)CC)C(N)=O
B8: peptide 56 (peptide)
peptide: Ac-ACYLACIEALIRAAQEQQEKNEAALR-NH2
modifications: linker 2-6 via pXylylene
SMILES: CC[C@H](C)[C@H](NC(=O)[C@H](CC(C)C)NC(=O)[C@H](C)NC(=O)[C@H](CCC(=O)O)NC(=O)[C@@H](NC(=O)[C@@H]1CSCc2ccc(cc2)CSC[C@H](NC(=O)[C@H](C)NC(C)=O)C(=O)N[C@@H](Cc2ccc(O)cc2)C(=O)N[C@@H](CC(C)C)C(=O)N[C@@H](C)C(=O)N1)[C@@H](C)CC)C(=O)N[C@@H](CCCNC(=N)N)C(=O)N[C@@H](C)C(=O)N[C@@H](C)C(=O)N[C@@H](CCC(N)=O)C(=O)N[C@@H](CCC(=O)O)C(=O)N[C@@H](CCC(N)=O)C(=O)N[C@@H](CCC(N)=O)C(=O)N[C@@H](CCC(=O)O)C(=O)N[C@@H](CCCCN)C(=O)N[C@@H](CC(N)=O)C(=O)N[C@@H](CCC(=O)O)C(=O)N[C@@H](C)C(=O)N[C@@H](C)C(=O)N[C@@H](CC(C)C)C(=O)N[C@@H](CCCNC(=N)N)C(N)=O
B9: peptide 57 (peptide)
peptide: Ac-ACYIACIEALIRAAQEQQEKNEAALR-NH2
modifications: linker 2-6 via pXylylene
SMILES: CC[C@H](C)[C@@H]1NC(=O)[C@H](Cc2ccc(O)cc2)NC(=O)[C@@H](NC(=O)[C@H](C)NC(C)=O)CSCc2ccc(cc2)CSC[C@@H](C(=O)N[C@H](C(=O)N[C@@H](CCC(=O)O)C(=O)N[C@@H](C)C(=O)N[C@@H](CC(C)C)C(=O)N[C@H](C(=O)N[C@@H](CCCNC(=N)N)C(=O)N[C@@H](C)C(=O)N[C@@H](C)C(=O)N[C@@H](CCC(N)=O)C(=O)N[C@@H](CCC(=O)O)C(=O)N[C@@H](CCC(N)=O)C(=O)N[C@@H](CCC(N)=O)C(=O)N[C@@H](CCC(=O)O)C(=O)N[C@@H](CCCCN)C(=O)N[C@@H](CC(N)=O)C(=O)N[C@@H](CCC(=O)O)C(=O)N[C@@H](C)C(=O)N[C@@H](C)C(=O)N[C@@H](CC(C)C)C(=O)N[C@@H](CCCNC(=N)N)C(N)=O)[C@@H](C)CC)[C@@H](C)CC)NC(=O)[C@H](C)NC1=O

The binders below were run against gp41 of HIV-1 strain HXB2D with mutation V38A (HIV-1 strain HXB2D, UniProt P04578) (assay: cell-based or functional assay).
In the case of B1, the “fold change in EC50, HIV-HXB2D V38A mutant” value (“fold change in EC50” for short) is reported as 57 fold. In the case of Suc-ACY[Abu]ACIEALIRAAQEQQEKNEAALR-NH2 (linker 2-6 via B1; reading uncertain) [peptide 49], the “fold change in EC50” value is reported as 33 fold. With B2 the “fold change in EC50” value was 12 fold. With B3 the “fold change in EC50” value was 10 fold. In the case of B4, the “fold change in EC50” value is reported as 5 fold. In the case of B5, the “fold change in EC50” value is reported as 34 fold. For B6, the “fold change in EC50” value was 31 fold. In the case of B7, the “fold change in EC50” value is reported as 1 fold. For B8, the “fold change in EC50” value was 61 fold. For Ac-ANYAALIEALIRAAQEQQEKNEAALR-NH2 [peptide 2], the “fold change in EC50” value was 61 fold. For B9, the “fold change in EC50” value was 23 fold. In the case of Ac-ACY[Cha]ACIEALIRAAQEQQEKNEAALR-NH2 (linker 2-6 via B1; reading uncertain) [peptide 59], the “fold change in EC50” value is reported as 18 fold. Ac-ACY[tBuAla]ACIEALIRAAQEQQEKNEAALR-NH2 (linker 2-6 via B1; reading uncertain) [peptide 60] was tested, and the “fold change in EC50” value was 18 fold.
